Test results published in US20250145722A1, “ANTI-GAL3 ANTIBODIES AND METHODS OF USE” (TrueBinding, Inc., priority 2020, published 2025).
One block for each molecule: values may come before it.

Key:
human Gal3 = target: T1, human Gal3 (Homo sapiens, UniProt P17931); test: Epitope binning assay, sandwich format, SPR-based Carterra LSA; settings: competitive binding for hGAL3
T1 construct: purchased AcroBio (Acro Biosystems) GA3-H5129
Procedure: First, the purified antibodies were diluted to 10 μg/ml concentration in 10 mM NaOAc (pH 5.0) and then were covalently coupled via amine group to HC200M chip activated by EDC and S-NHS to immobilize antibodies to different positions of a 384-spot array. One hundred thirty-eight binning cycles were run on the array of immobilized antibodies. In each cycle, first, human Gal3 (AcroBio GA3-H5129) was injected over the entire array to bind to different antibodies (primary antibody), followed by one antibody (secondary antibody) selected among the panel of 150 anti-GAL3 antibodies tested. At the end of each cycle, the array was regenerated by 10 mM Glycine (pH 2.0) to remove bound antigen and secondary antibody from the array. The data analysis was done using the Epitope software by CarterraBio.

[1] = target: T2, interaction of Gal3 and APP695 (Homo sapiens, UniProt P17931); test: Gal3-APP695 blocking ELISA; assay type: binding
T2 construct: purchased R&D Systems; QCB200349; QCB200352; host or cells: mammalian (R&D 8259-GA) or E. coli (QCB200349)
Procedure: To identify Gal3-targeted antibodies with the ability to block the interaction of Gal3 and APP695, purified Gal3 and APP695 proteins were incubated in the presence (or absence) of various Gal3-targeted or control antibodies, or without antibody, and protein interaction was evaluated by ELISA.
Human GAL3 (mammalian, R&D Systems, 8259-GA; E-coli derived, untagged, TrueBinding, QCB200349; or His-tagged, TrueBinding, QCB200352) was diluted in PBS (Corning, 21-030-CM) to a concentration of 4 μg/mL and added to the wells of a 96-well ELISA plate (Thermo Fisher, 44-2404-21). After incubating the plate at 4° C. overnight, the plate was washed three times with PBST (PBS with 0.05% Tween 20 [VWR, 0777]) and then blocked for an hour with 2% BSA (EMD Millipore, 126609) in PBST at room temperature with gentle rocking. Human APP695 (R&D Systems, 9937-AP) was biotinylated with EZ Link Sulfo-NHS-LC-Biotin (ThermoFisher Scientific, A39257) and desalted using a Zeba Spin Desalting Column (ThermoFisher Scientific, 89882), following the manufacturer's instructions. […] The reaction was stopped with 1M HCl (JT Baker, 5620-02) and read using a plate reader (Molecular Devices) at absorbance of 450 nm. Percent blockade of Gal3-APP695 interaction was calculated as the fraction of signal obtained in the absence of antibody with the background signal subtracted.

T1 sequence (P17931 whole entry): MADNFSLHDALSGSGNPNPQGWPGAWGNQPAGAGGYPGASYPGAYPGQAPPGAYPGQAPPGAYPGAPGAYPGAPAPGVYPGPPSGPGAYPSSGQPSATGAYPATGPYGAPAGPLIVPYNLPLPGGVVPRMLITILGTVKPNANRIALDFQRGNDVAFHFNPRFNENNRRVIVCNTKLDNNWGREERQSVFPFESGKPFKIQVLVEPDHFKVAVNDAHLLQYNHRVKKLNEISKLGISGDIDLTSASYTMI
T2 sequence (P17931 2-250 limits assumed): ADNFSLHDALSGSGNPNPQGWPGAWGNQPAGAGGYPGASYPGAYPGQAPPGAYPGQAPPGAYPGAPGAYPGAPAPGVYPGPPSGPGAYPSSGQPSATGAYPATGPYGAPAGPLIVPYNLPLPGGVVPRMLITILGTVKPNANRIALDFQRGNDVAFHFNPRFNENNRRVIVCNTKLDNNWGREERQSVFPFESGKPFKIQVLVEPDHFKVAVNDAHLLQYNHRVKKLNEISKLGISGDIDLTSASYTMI

Epitope bin (human Gal3): bin 16
B1: 846.2B11: anti-Gal3 antibody (antibody, V domains shown)
VH: QVQLQQSGPELVRPGALVKISCKASGYTFTSYDINWVKQRPGQGLEWIGWIYPGDGSTKYNEKFKGKATLTADKSSSTAYMQLSSLTSENSAVYFCAREAASNAMDYWGQGTSVTVSS
VL: DIVLTQSPASLGVSLGQRATISCRASKSVSTSGYSYMHWYQQKPGQPPKLLIYLASILESGVPARFSGSGSGTDFTLNIHPVEEEDAAIYYCQHSRELPLTFGAGTKLELK
modifications: misc_feature 1..354 846.2B11 VH nucleic acid; misc_feature 1..333 846.2B11 VL nucleic acid
notes: anti-Gal3 antibody

Blocking of Gal3-APP695 binding (in words) [1]: did not impact
B2: F849C.8D12: anti-Gal3 antibody (antibody, V domains shown)
VH: EVQLQQSGPELVKPGSSVKISCKASRYTFTDYNMDWVKQSHGKRLEWIGYIYPNNGGTGYNQKFKGKATLTVDKSSSTAYMELRSLTSEDSAVYYCARSYYDGSYDAMDYWGQGTSVTVSS
VL: DIQMTQTTSSLSASLGDRVTISCSASQGISNYLNWYQQKPDGTVKLLIYYTSSLHSGVPSRFSGSGSGTDYSLTISNLEPEDIATYYCQQYSKLPRTFGGGTKLEI
modifications: misc_feature 1..363 849.8D12 VH nucleic acid; misc_feature 1..318 849.8D12 VL nucleic acid
notes: anti-Gal3 antibody
